Test: yeast display, Sf9 membrane polyspecificity reagent, FACS + sequencing; frameworks hold sequencing errors
Outline: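 Genes from sorted yeast were amplified by colony PCR, read by MiSeq 2 × 250 sequencing and filtered on CDR length. These cells carried a synthetic nanobody library in Saccharomyces cerevisiae BJ5465 and were sorted by FACS into low and high (top ~1%) gates on anti-HA and streptavidin fluorescence. Polyreactivity is labelled according to the gate of origin.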

| Sequence | polyreactivity (PSR sort gate) |
| --- | --- |
| QVQLVESGGGLVQAGGSLRLSCAASGRTLYTNAMGWYRQPPGKEREFVASISGSGGSTYYADSVKGRFTISRDNAKNTVDLQMNRLKQEDTAVYYCAADPAQTVEFGKYDYWGQGTQVTVSS | low polyreactivity |
| QVQLVESGGGLVQAGGSLRLSCAASGRTMAVYAMGWDRQAPGKEREVVAAISWSGGTTYYADSVKGRFTISRDNAKNTVYLQMNSLKAEDTAVYYCAADSYTEVDYWGQGTQVTVSS | low polyreactivity |
| QVQLVESGGGLVQAGGSLRLSCAASGRTRGVNAMGWYSQAPGKERELVAAITRRGGSTSYADSVKGRFTISRDNEKNTVYLHMNSLKPEDTAVYYCAAGVIREKYYIWSDYEYDYWGQGTQVTVSS | low polyreactivity |
| QVQLVESGGGLVQAGGSLRLSCAASGRTSDGYARGWYRQAPGKERELVAGITEGGGDTYYADSVKGRFTISRDNAKNTVYLQMNSLKPEDTAVYYCNAVEGSRLPYDYWGQGTQVTVSS | low polyreactivity |
| QVQLVESGGGLVQAGGSLRLSCAASGRTSGNYAKGWNRQAPGKERELVAAIRYSGSSTFYAESVKGRFTISRDSAKNSVYLQMNSLKPEDTGVYYCARDIRRKGFRYDYWGQGTQVTVSS | high polyreactivity |
| QVQLVESGGGLVQAGGSLRLSCAASGRTSLAYAMGWYRKATGKERELVAGITSGGNTNYADSVKGRFTISCDNAKNSVYLQMNRLKPEDTAVYYCNKKKRWQWYSESVLDELGFYSWGQGTQVTVSS | low polyreactivity |
| QVQLVESGGGLVQAGGSLRLSCAASGRTSLAYAMGWYRQAPGKERELVAAISRTGSTYYADSVKGRFTISRDNAKNTVYLQMNSLKPEDTAVYYCNAKRRPYSVRSDYWGQGTQVTVSS | high polyreactivity |
| QVQLVESGGGLVQAGGSLRLSCAASGRTSLRNAMGWYRQAPGKEWELVATISQSGGRTHYADSVKGRFTISRENAKNTVYLQMNSLKPEDTAVYYCGAVARFSQYLYNYWGQGTQVTVSS | low polyreactivity |
| QVQLVESGGGLVQAGGSLRLSCAASGRTSLRYAMGWYRLAPGKDRELVAAIRYGGGSTRYADSVKGRFTISRDNAKNTVYLQMKSLKPEDTAVSYCAARYFPRIQYGRKGYDYWGQGTQVTVSA | low polyreactivity |
| QVQLVESGGGLVQAGGSLRLSCAASGRTSNFNAMGWYRQATGKERELVAAINSDGSTYYADSVKGRFTISRDNAKNTVYLQMNSLKPEDTAVDYCAVRKRPHGYLAFGYWGQGTQVTVSS | low polyreactivity |
| QVQLVESGGGLVQAGGSLRLSCAASGRTSNGYAMGWYRQAPGKERELVAAYADSVKGRFTISRDNAKNTVYLQMNSLKPEDTAVYYCNADYYPVSRVGYVYWAYYYWGQGTQVTVSS | low polyreactivity |
| QVQLVESGGGLVQAGGSLRLSCAASGRTSPYYTMGWYRQAPGKERELVAASGSRTDYADSVKGRFTISRDNAKNTVYLQMNSLKPEDTAVYYCNAYRYRQSSSDKYGYWGQGTQVTVSS | low polyreactivity |
| QVQLVESGGGLVQAGGSLRLSCAASGRTSRNNVMGSYRQAPGKERELVAAITKRTDRTYYADSVKGRFTISRDNAKNTVYLQMNSLKPEDTAVYYCAADLSLSTGGRAFPTYGYWGQGTQVTVSS | high polyreactivity |
| QVQLVESGGGLVQAGGSLRLSCAASGRTSRRNAMGWYRQAPGKERELVAAISGSGGRTNSADSVKGRFTISRDNAQNTVYLQMNSLKPEDTAVYYCNVLTRYYLGYDYWGQGTQVTVSS | high polyreactivity |
| QVQLVESGGGLVQAGGSLRLSCAASGRTSRVYAMGWYRQAPGKERELVAAITWRGGNTYYADSVKGRFTISRDNAKNTVYLQMNSLKPEDTAVYYCAADKYTHKPHGDYWGQGTQVTVSS | high polyreactivity |
| QVQLVESGGGLVQAGGSLRLSCAASGRTSSIYTMGWYRQAPGKERELVAAIRGRGGNTYYADSVKGRFTISRDYAKNTVYLLMNSLKPEDTAVYYCNAKPQGVGLYRYEYWGQGTQVTVSS | high polyreactivity |

| Sequence | polyreactivity (PSR sort gate) |
| --- | --- |
| QVQLVESGGGLVQAGGSLRLSCAASGRTSVGYVMGWYRQAPGKERELVASITSGGSTYYADSVKGRFTISRDNAKNTVYLQMNSLKPEDTAVYYCAAQLKSHRTYGHDYWGQGTQVTVSS | low polyreactivity |
| QVQLVESGGGLVQAGGSLRLSCAASGRTSVIYAMGWYRQAPGKERELVASIRRGGSTSYADSVKGRFTISRDNAKNTVYLQMNSLIPEDTAVYYCAATLVRRARSGPMGYWGQGTQVTVSS | high polyreactivity |
| QVQLVESGGGLVQAGGSLRLSCAASGRTSYVYAMGWYRQAPGKERELVAAITSSGGSTYYADSVKGRFTISRDNAKNTVYLQMNSLKPEDTAVYYCAAETYPVWGVAFYYWGQGTQVTVSS | high polyreactivity |
| QVQLVESGGGLVQAGGSLRLSCAASGRTSYYYAMGWSRQAPGKERELVAAISRSGGRTYYADSVKGRFTISRDNAKNTVYLQMNSLKPEDTAVYYCAADPRSYDTGRMDYWGQGTQVTVSS | high polyreactivity |
| QVQLVESGGGLVQAGGSLRLSCAASGRTVAPYAMGWYRPAPGKERELVAGITYRTGNTYYADSVKGRFTISRDNAKNTVYLQMNSLKPEDTAVYYCAAYSGYYRPRYNFWGQGTQVNVSS | high polyreactivity |
| QVQLVESGGGLVQAGGSLRLSCAASGRTVGYNAMGWYRQAPGKERELVAAISRSGDSTYYADSVKGRFTISRDNAKNTVYLQMNSLKPEDTAVYYCATRYVTTGYDYWGQGTQVTVSS | low polyreactivity |
| QVQLVESGGGLVQAGGSLRLSCAASGRTVKPYAMGWYRQAPGKERELVAAISSGVSTHYADSVKGRFTISRDNAKNSVYLQMNSLKPEDTAVYYCDADDWVNYWFDYWGQGTQVTVSS | low polyreactivity |
| QVQLVESGGGLVQAGGSLRLSCAASGRTWFYAMGWYRQAPGKERELVAAISGSSGSTYYADSVKGRFTISRDNAKNTVYLQMNSLKPEDTAVYYCAADFWRFYYEYDYWGQGTQVTVSS | low polyreactivity |
| QVQLVESGGGLVQAGGSLRLSCAASGRTYAAYAMGWYRQAPGKERELVAAISIGGSTNYADSVKGRFTISRDNAKNTVYLLMNSLKPEDTAVYYCAAGTWAVSKYLEWLEFYYWGKGTQVTVSS | high polyreactivity |
| QVQLVESGGGLVQAGGSLRLSCAASGRTYFYNTMGWYRQAPGKESELVARITRGGSTYYADSVKGRFTISRDNAKNTVYLQMPSLKPEDTAFYYCAAGYWRGYFLYGFDYWGQGTQVTVSS | high polyreactivity |
| QVQLVESGGGLVQAGGSLRLSCAASGRTYHAYAMGWYRQAPGKGRELVAAITRTGTTHYADSVKGRFTISRDNAKNTVYLQMNSLKPEETAVYYCNKATQFYQWGASPYYPRRDYWGQGTQVTVSS | low polyreactivity |
| QVQLVESGGGLVQAGGSLRLSCAASGRTYRQNAMGWYRQAPGKEGELVAAISSSGTNTHYADSVKGRFTISRDNAKNTVYLQMTSLKPEDTAVYYCAADSWGARRKQYHENGYWGQGSQVTVSS | high polyreactivity |
| QVQLVESGGGLVQAGGSLRLSCAASGRTYSNAMGWYRQAPGKERELVAAITWSGGRTYYADSVKGRFTISRDNAKNTVYLQMNSLKPEDTAVYYCAADSIWWPLWFDYWGQGTQVTVSS | high polyreactivity |
| QVQLVESGGGLVQAGGSLRLSCAASGRTYTFYARGWYRQAPGKERELVAAITWGGGSTYYADSVKGRFTISRDNAKNTVYLQMNSLKPEDTAVYYCAAEWYEPVGSRWYSPYYYWGQGTQVTVSS | high polyreactivity |
| QVQLVESGGGLVQAGGSLRLSCAASGSARYAMGWYRQAPGKERELVAAISRRGGSTFYADSVKGRFTISRDNAMNTVYLQMNSLKPEDTAVYYCAADGRISYDYWGQGTQVTVSS | low polyreactivity |
| QVQLVESGGGLVQAGGSLRLSCAASGSFFASYSMGWYRQAPAKERELVAAITYSGSRTYYADSVKGRFTISRDNAKNTVYLQMNSLKPEDSAVYYCNADYYWYPYEDDYWGQGTQVTVSS | low polyreactivity |

From the nanobody polyreactivity screen of Harvey et al. (2022)
